Assay results as given in patent publication US20220364069A1, “METHOD FOR THE PRODUCTION OF AN ENZYMATIC COMPOSITION COMPRISING A RECOMBINANT ENDOPEPTIDASE” (NEMYSIS LIMITED, priority 2019, published 2022).

Legend:
[1] = system: peanut proteins; assay: In vitro digestion of peanut proteins (SDS-PAGE, HPLC); type: biochemical; conditions: 1:20 enzyme:substrate, up to 120 min
Protocol: Degradation of peanuts proteins incubated in the presence of recombinant E40 has been assessed by SDS-PAGE and HPLC analysis. Results are shown in FIG. 9 (A: SDS-PAGE; B: HPLC analysis).

[2] = system: CD4+ T-cell lines from intestinal biopsies of CD patients; assay: IFN-γ production of gliadin reactive intestinal T-cell lines exposed to gliadin digests; type: cell-based, human; conditions: samples A-H; digests at 50 and 100 μg/ml; 48 hours; assay sensitivity 32 pg/ml
Protocol: In order to evaluate the capability of gliadin preparations to activate a T-cell response, the different gliadin enzymatic digests (samples A-L in FIGS. 7A and 7B) deamidated by tTG treatment, were assayed on CD4+ T-cell lines previously established from intestinal biopsies of CD patients^11 (Table 3).
Briefly, intestinal mononuclear cells were stimulated with irradiated autologous peripheral blood mononuclear cells (PBMCs) and deamidated pepsin-chymotrypsin digested gliadin extracted from the hexaploid wheat. Growing T cells were kept in culture by repeated stimulation with heterologous irradiated PBMCs and PHA, and IL-2 as a growth factor. […] In the functional assays, the immune response of TCLs to gliadin enzymatic digests (samples A-L, Table 1 and FIGS. 7A and B) was assayed by detecting IFN-γ production. T cells (3×10^4) were co-incubated with irradiated autologous EBV-transformed, B-lymphoblastoid cell lines (B-LCLs, 1×10^5), in 200 μL of complete medium (X-Vivol5 supplemented with 5% human serum and penicillin-streptomycin antibiotics, all reagents supplied by Lonza-BioWhittaker, Verviers, Belgium) in U-bottom 96-well plates. After a 48 hours incubation, cell supernatants (50 μL) were collected for IFN-γ determination. […] IFN-γ was measured by a classic sandwich ELISA using purified and biotin-conjugated anti-IFN-γ Abs purchased from Mabtech (Nacka Strand, Sweden). […]

[3] = system: gluten of bread; assay: In vitro oral-gastric digestion of bread, gluten by Elisa-R5 competitive; type: biochemical, T. aestivum
Protocol: In order to evaluate the efficiency of E40 enzyme as oral supplement to abolish the gluten intake in patients, in vitro oral-gastric digestion model was applied. Digestion step of bread (T. aestivum) was carried out under simulated physiological condition including oral mastication and presence of digestive gastric enzymes. Digestion time was selected according to the average time of chyme's transit in the gastric compartments. E40 enzyme preparation was added at beginning of the simulated gastric phase. The destruction of the T cell epitopes and toxic peptides was tested using monoclonal antibodies (Elisa-R5 competitive), according to the manufacturer's and to the AOAC guidelines.

[4] = system: 33-mer gliadin peptide; assay: Digestion of 33-mer gliadin peptide monitored by LC-MS/MS; type: biochemical
33-mer gliadin peptide, sequence (as listed by the source): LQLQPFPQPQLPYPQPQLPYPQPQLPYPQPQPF
Protocol: The 33-mer gliadin peptide degradation was monitored by LC-MS/MS, before (FIG. 5, panel A) and after (FIG. 5, panels B-E) digestion by recombinant E40. Digestion was performed in U-bottom 96-wells microtiter plate; 33-mer was diluted in citrate phosphate buffer (pH 5) to 5 mg/ml, mixed with the enzyme preparation comprising recombinant E40 diluted in the same buffer (1:48 enzyme vs substrate molar ratio) and incubated at 37° C. At the time points 0, 15, 30 and 60 minutes, aliquots (10 μl) were taken, and reactions were stopped by boiling for 3 minutes before being analyzed by LC-MS/MS.
Samples were analyzed by HPLC system Accela Instrument (Thermo Fisher Scientific, San Jose, Calif.) coupled to both UV detector and LTQ-XL ion trap mass spectrometer (Thermo Fisher Scientific). […] E40 cleaving site occurs between F-P and Q-L residues of gliadin, leading to short peptides lacking of T-cell stimulatory capacity (FIG. 5, F)^3. This finding was also observed at more diluted E40 concentration (1:96, molar ratio): in that case complete 33-mer degradation took 30 minutes (not shown).

[5] = Activity of culture supernatant toward sucAAPF-AMC at various pH; type: biochemical; conditions: recombinant E40 culture supernatant
Protocol: FIG. 1. Activity of Actinoallomurus A8 culture supernatant fraction containing the native E40. A: relative activity toward the substrate sucAlaAlaProPhe-AMC (sucAAPF-AMC) at various pH values (the optimum —100% activity— is at pH 5). B: Gliadin digestion after 2 hours of incubation at 37° C., pH 3. Gel stained with Coomassie R250 brilliant blue; Lane 1: gliadin alone, lane 2: gliadin+E40-containing supernatant fraction.
FIG. 3. Recombinant E40 (SEQ ID NO: 2) obtained by S. lividans TK24/p1J86/e40 submerged fermentation, at flask scale (panels A-C) or in a 15 L bioreactor, followed by purification (panels D-E). A: activity toward the substrate sucAAPF-AMC at pH 5 of supernatant samples taken at different fermentation times (♦72, ▴96, ●168, ▪192 fermentation hours) from the producing S. lividans TK24/p1J86/E40 (E40, continuous line) and absence of activity of supernatant samples taken from the pIJ86-empty control strain (ctr, dashed lines). Activity is shown as relative fluorescent units (rfu, Y axis) produced in time (X axis). […] D: profile of an enzyme preparation comprising recombinant E40 purified from the 15 L fermentation; lane 1: final enzyme preparation comprising recombinant E40 stained with Coomassie (the arrow indicates recombinant E40), lane 2: zymography as in C, lane 3: band of gelatin hydrolysis after 2 hours of digestion at 37° C. and pH 5, visualized after Coomassie staining of the gelatin substrate. E: relative activity (%) of recombinant E40 in the purified enzyme preparation at different pH values (from 2 to 8), evaluated with the substrate suc-Ala-Ala-Pro-Phe-pNA.
As well as native E40, recombinant E40 was active in the pH range 3-6, with an optimum at pH 5 (FIG. 3, panel B).

B1: E40: Actinoallomurus endopeptidase with glutenase activity, sequence comprising SEQ ID NO: 1; recombinant histidine-tagged form SEQ ID NO: 2 from S. lividans (protein)
chain: AAPSGLSPANLQSAYKLPSSTAGSGQTVAIVDAYDAPTAEADLNVYRSQFGLGACTTANGCFKKVDQNGGTSYPRKDGGWAQEISLDLDMVSAVCPNCKIVLVEAKTNSFANLGTAENTAASLANVISNSYGGSDASDASYGSYYNHPGKAITVSSGDAGYGVEYPASSHYVTAVGGTSLRTASTSRGWSETAWSGAGSGCSAYNTALSGQSGLTGCSRRAVADVSAVADPATGVAVYDSTAYQGQSGWMVFGGTSVAAPIIGGVYGLAANAASIDNNYPYAHTSSLFDVTSGSNGTCTTTKWCTAGTGWDGPTGLGTPNGTGAFGHHHHHH
modifications: Actinoallomurus
With B1 the peanut protein digestion [1] was “degradation of peanut proteins”, the “IFN-γ production of T cells exposed to E40-digested gliadins” value [2] was “no detectable IFN-γ production” and the “gluten content of bread digest (Elisa-R5)” value ([3]; E40 added at beginning of simulated gastric phase) was 16.2 ppm (ng/mL). The “gluten content of digested bread including E40” value ([3]; oral-gastric digest) was less than 20 ppm, the “time to complete disappearance of native 33-mer peptide signal” value ([4]; 1:48 enzyme vs substrate molar ratio, pH 5, 37° C.) was 15 min and the “time to complete 33-mer degradation” value ([4]; 1:96 molar ratio) was 30 min. The “pH range of activity” value [5] was 3-6 and the “pH optimum of relative activity” value ([5]; 168 hours of fermentation, sucAAPF-AMC) was 5.
